# Experimental data from patent US20220112276A1 (Janssen / Centocor, published 2022).
# B1: 02G06R3 His-tagged VHH (VHH)
# VHH: EVQLVESGGGLVQAGGSLRLSCAASGRTFDSYAMGWFRQAPGKEREFVAAISWTGGSTDYADSVKGRFTISRDNAKNTVYLQMDSLKPEDTAVYYCAAEVVGRDVTTMYRVSGLEYEYDYWGQGTQVTVSS
# B2: 02H11R3 His-tagged VHH (VHH)
# VHH: EVQLVESGGGSVQAGGSLRLSCAASGRTFSNYAMGWFRQAPGKEREFVAGISRSGGSTYSADSVKGRFTISRDNAKNTVYLQMNSLKPEDTAVYYCAADGLDYALGFRGDYWGQGTQVTVSS
# B3: 01C01R2L His-tagged VHH (VHH)
# VHH: QVQLVESGGGLVQAGGSLRLSCAASGRTLRSYIVGWFRQAPGKEREFVAAVTWSDGRRVTADPVKGRFTISRDNAKNTVYLQMDSLKPEDAAVYYCAVSRGGAYEYSRAYEYWGQGTLVTVSS
# B4: 01C01R2LS His-tagged VHH (VHH)
# VHH: QVQLVESGGGLQQAGGSLRLSCAASGRTVTVMTVGWFRQAPGKEREFVAAITMYGERTYYADSVKGRFTISRDNAKNTVDLQMNSLKPEDAAVYYCAARTYVSGIYDRFDDYNYWGQGTQVTVSS
# B5: 01E11R2 His-tagged VHH (VHH)
# VHH: QVQLVESGGGLVQTGGSLRLSCAASGLTFSSYTMGWFRQAPGKEREFVAAISWGGASTWYADSVKGRFTISRDNAKTMVYLQMNGLKPEDTAVYYCAKGRNNGYATAVRAYDYWGQGTLVTVSS
# B6: 01G02R2LS His-tagged VHH (VHH)
# VHH: QVQLVESGGGLVQAGDSLALSCAGSGDTFSNYAMGWFRQAPGKEREFVADISWYGANIGYADSVKGRFTISRDNAKNMVTLRMNSLKPEDTAVYYCAADRNHWPVKGDYWGQGTQVTVSS
# B7: 02D06R3 His-tagged VHH (VHH)
# VHH: QVQLVESGGGLVQPGGRLRLSCAASGSIFSIRDMAWYRQAPGKQREWVAIAARGGSTHYADSVKGRFTISRDNAKNTVYLQMNTLEPEDTAAYYCNAEVATMIQPGFRDYWGQGTQVTVSS
# B8: 01A01R3 His-tagged VHH (VHH)
# VHH: EVQLVESGGGLVQAGGSLRLSCAASGSGRTFTSYTMGWFRQAPGKEREFVSALTWADDSTYYKYYADSMKGRLTISRDNAKNTVYLQMNSLKPEDTAVYYCVATGRGLTYDPRDRRKYDYWGQGTQVTVSS
# B9: 01C02R3LS His-tagged VHH (VHH)
# VHH: QVQLVESGGGLVQAGDSLRLSCAASGRTRTTYGMGWFRQAPGKEREFVTTITWSGSTNYKYYADSVKGRFTISRDNAKNTVYLQMNSLKPDDTAVYYCAASTVLTDPRVPTEYDYWGQGTQVTVSS
# B10: 01B10R3L His-tagged VHH (VHH)
# VHH: QVQLVESGGGLVQAGDSLRLSCAASGRTFTTYVMGWFRQPPGKEREFVATISWSGSTTYKYYADSVKGRFTISRDNAKNTVYLQMNSLKPEDTAVYYCAASTVVADPRAPNEYDYWGQGTQVTVSS
# B11: 01C08R2L His-tagged VHH (VHH)
# VHH: EVQLVESGGGLVQAGDSLRLSCAASGRTFTTYGVGWFRQAPGKEREFVTTITWSGSTNYKYYADSVKGRFTISRDNAKNTVYLQMNSLKPDDTAVYYCAASTVLTDPRVPTEYDYWGQGTQVTVSS
# B12: 01G08R3LS His-tagged VHH (VHH)
# VHH: QVQLVESGGGLVQAGDSLRLSCAASGRTFTTYGMGWFRQGPGKEREFVATITWSGSTNYKYYTDSVKGRFTISRDNAKNTVYLQMNSLKPEDTAVYYCAASTVLTDPRRLNEYDYWGQGTQVTVSS
# B13: 01H06R3L His-tagged VHH (VHH)
# VHH: EVQLVESGGGLVQAGDSLRLSCAASGRTRTTYGMGWFRQAPGKEREFVTTITWSGPTNYKYYADSVKGRFTISRDNAKNTAYLQMNSLKPDDTAVYYCAASTVLTDPRVPTEYDYWGQGTQVTVSS
# B14: 01H11R2LS His-tagged VHH (VHH)
# VHH: EVQLVESGGGLVQAGDSLRLSCAASGRTLTTYGMGWFRQAPGKEREFVATIKWSGSTNYKYYADSVKGRFTISRDNAKNTVYLQMNSLKPEDTAVYYCAAGTVLGDPRVLNEYDYWGQGTLVTVSS
# B15: 02E01R3LS His-tagged VHH (VHH)
# VHH: QVQLVESGGGLVQAGDSLRLSCAASGRTFTTYGMGWFRQAPGKEREFVTTITWSGSTNYKYYADSVKGRFTISRDNAKNTVYLQMNSLKPDDTAVYYCAASTVLRDPRVPTEYDYWGQGTQVTVSS
# B16: 02G03R3 His-tagged VHH (VHH)
# VHH: EVQLVESGGGLVQAGGSLRLSCAASGMPDNIFSIKTMGWYRQAPGKERELVAAITSGGSTNYGDSVKDRFTISRDRIENTVNLEMNNLKPEDTAVYTCHADLTYIRFQDMEYWGKGTQVTVSS
# B17: 02G04R3 His-tagged VHH (VHH)
# VHH: QVQLVESGGGLVQAGGSLRLSCAANGRAANAYAVGWFRQAPGKEREFVAHIRWNGGRTAYADSVKGRFTISRDDAKNTVYLQMDSLKPEDTAVYYCAEDTNPDAFGDLRLPSEYEYWGQGTQVTVSS
# B18: 02B03R3 His-tagged VHH (VHH)
# VHH: EVQLVESGGGLVQSGGQLRLSCAASGSIASIRDMAWYRQAPGKQRELVAIFARGGTTHYADSVKGRFTISRDNAKNTVYLQMNSLEPEDTAAYYCNAEVATMFQPGFRDYWGRGTLVTVSS
# B19: 01A03R3L His-tagged VHH (VHH)
# VHH: EVQLVESGGGLVQPGGQLRLSCAASGSIASVRDMAWYRQAPGKQRGLVAIFARGGTTHYADSVKGRFTISRDNAKNTVYLQMNSLEPEDTAAYYCNAEVATMFQPGFRDYWGRGTLVTVSS
# B20: 01C03R3L His-tagged VHH (VHH)
# VHH: QVQLVESGGGLVQPGGRLRLSCAASGSIFSIRDMGWYRQAPGKQRELVAIFARGGSTHYADSVKGRFTISRDNAKNTVYLQMNSLEPEDTAAYYCNAEVATMIQPGFRDYWGQGTLVTVSS
# B21: 02H04R3 His-tagged VHH (VHH)
# VHH: EVQLVESGGGLVQPGGRLRLSCAASGSIFSIRDMGWYRQAPGKQRELVAIFARGGSTHYADSVKGRFTISRDNAKNTVYLQMNSLEPEDTAAYYCNAEVATMIQPGFRDYWGQGTQVTVSS
# B22: 03A08R3 His-tagged VHH (VHH)
# VHH: QVQLVESGGGLVQAGGSLRLSCAASGRTSSIYGMGWFRQAPGKEREFVAAISWSAGRTYHADSVKGRFTISRDNAKNMVYLQMDKMKPGDTAVYYCAARRAPELLSDYTQKPEEIGTYHYWGQGTLVTVSS
# B23: 01A09R2 His-tagged VHH (VHH)
# VHH: EVQLVESGGGLVQAGGSLRLSCAASGRTFSSNPMGWFRQAPGKEREFVAAISWSGGGTYYADSVKGRFTISRDNAKNTVTLQMNSLKPEDTAVYYCASRDYSDPISLWVEDREYDYWGQGTQVTVSS
# B24: 01F01R2 His-tagged VHH (VHH)
# VHH: QVQLVESGGGLVQAGGSLRLSCAASGRTFSSNPMGWFRQAPGKEREFVAAISWSGGGTYYADSVKGRFTISRDNAKNTVTLQMNSLKPEDTAVYYCASRDYSDPISLWVEDREYDYWGQGTQVTVSS
# B25: 03B07R3 His-tagged VHH (VHH)
# VHH: QVQLVESGGGLVQAGGSLRLSCAASGRTFSSNPMGWFRQAPGKEREFVAAISWSGGGTYYADSVKGRFTISRDNAKNTVTLQMNSLKPEDTAVYYCASRDYSDPISLWVEDREYDYWGQGTLVTVSS
# B26: 03D05R3 His-tagged VHH (VHH)
# VHH: EVQLVESGGGLVQAGGSLRLSCAASGRTFSSNPMGWFRQAPGKEREFVAAISWSGGGTYYADSVKGRFTISRDNAKNTVTLQMNSLKPEDTAVYYCASRDYSDPISLWVEGREYDYWGQGTLVTVSS
# B27: 01B01R3 His-tagged VHH (VHH)
# VHH: QVQLVESGGGLVQAGGSLRLSCAASGRTFSSYAMGWFRQAPGKEREFVAVISWSGGSTYYADSVKGRFTISRDNAKNTVYLQMNSLKPEDTAVYYCASGEQPGSNRPYIPEQPIEFMPTDYPSWYDYWGQGTLVTVSS
# B28: 01F03R2 His-tagged VHH (VHH)
# VHH: QVQLVESGGGLVQAGGSLRLSCAASGRTFSSYAMGWFRQAPGKEREFVAVISWSGGSTYYADSVKGRFTISRDNAKNTVYLQMNSLKPEDTAVYYCASGEQPGSNRPYIPEQPIEFMPTDYPSWYDYWGQGTQVTVSS
# B29: 03C05R3 His-tagged VHH (VHH)
# VHH: EVQLVESGGGLVKAEGSLRLSCVASTSIASINVMGWYRQAPGKERELVARISGGGITHYAESVEGRFTISRDNAKNTVHLQMNGLKPEDTAAYYCKADVFASSGHVTTYWGQGTLVTVSS
# B30: 01B05R2 His-tagged VHH (VHH)
# VHH: EVQLVESGGGLVQAGGSLRLSCAASGRSLSFDTYAMGWFRQAPGKEREFVASIDWNGGSTYYADSVKGRFTISRDNARNTVNLRMNSLKPDDTAVYYCAAARYYTSGTYFPANYWGQGTQVTVSS
# Target: T1, recombinant human pIgR (hpIgR) (human, UniProt P01833 19-638, limits assumed)
# T1 construct: probably the ECD
# Test: ELISA, periplasmic VHH, BSA subtracted
# Description: Initial Library Screening: After each panning round showing enrichment, 94 individual clones were expressed and tested in an off-phage initial screen for specific binding to mpIgR or hpIgR (respectively depending on the antigen used). Screening of monoclones in an off-phage format was performed by transforming the phagemid pool into a non-amber-suppressor strain of E. coli and picking random colonies. The VHH proteins were recovered in the periplasmic fraction by performing osmotic shock. Periplasmic fractions containing His-tagged nanobodies were tested for binding to hpIgR or mpIgR. Bound nanobody was detected with a polyclonal anti-alpaca VHH domain antibody. Each clone was also tested for non-specific binding to BSA in parallel. The ELISA values obtained on BSA were subtracted from the ELISA values obtained on the respective pIgR antigen.
# Repeat Testing of Positive Hits: The hits identified in the initial screen of the phage pools were re-tested for binding to either hpIgR or mpIgR. Periplasmic fractions were prepared again by performing osmotic shock. Periplasmic fractions containing His-tagged nanobodies were tested for binding to mpIgR. In this assay, bound nanobody was detected with an anti-VHH antibody. Each clone was also tested for non-specific binding to BSA in parallel. The ELISA values obtained on BSA were subtracted from the ELISA values obtained on the respective pIgR antigen.
# T1 sequence (P01833 19-638 limits assumed): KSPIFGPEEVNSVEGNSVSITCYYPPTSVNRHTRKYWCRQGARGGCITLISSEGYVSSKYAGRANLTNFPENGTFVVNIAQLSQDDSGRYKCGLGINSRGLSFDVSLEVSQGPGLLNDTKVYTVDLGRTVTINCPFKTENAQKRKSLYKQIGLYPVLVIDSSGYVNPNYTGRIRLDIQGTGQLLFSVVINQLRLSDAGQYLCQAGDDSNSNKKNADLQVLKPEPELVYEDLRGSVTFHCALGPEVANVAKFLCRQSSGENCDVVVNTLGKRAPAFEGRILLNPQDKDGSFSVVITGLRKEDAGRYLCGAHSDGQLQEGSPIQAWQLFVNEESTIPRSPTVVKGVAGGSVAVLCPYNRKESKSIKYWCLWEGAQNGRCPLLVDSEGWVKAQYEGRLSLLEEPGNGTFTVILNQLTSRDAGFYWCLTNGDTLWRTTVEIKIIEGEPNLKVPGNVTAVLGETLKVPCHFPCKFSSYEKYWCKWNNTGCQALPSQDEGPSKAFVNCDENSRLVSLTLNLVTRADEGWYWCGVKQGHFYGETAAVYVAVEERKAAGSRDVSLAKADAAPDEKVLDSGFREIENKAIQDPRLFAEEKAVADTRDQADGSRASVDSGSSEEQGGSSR
row,Binder,ELISA (OD)
1,B1,1.8 OD
2,B2,1.97 OD
3,B3,1.97 OD
4,B4,0.82 OD
5,B5,2.01 OD
6,B6,1.62 OD
7,B7,2.16 OD
8,B8,0.91 OD
9,B9,2.01 OD
10,B10,2.04 OD
11,B11,1.98 OD
12,B12,2.41 OD
13,B13,1.87 OD
14,B14,0.43 OD
15,B15,1.54 OD
16,B16,2 OD
17,B17,0.93 OD
18,B18,0.44 OD
19,B19,2.03 OD
20,B20,1.77 OD
21,B21,2.4 OD
22,B22,2.1 OD
23,B23,1.86 OD
24,B24,2.2 OD
25,B25,2.19 OD
26,B26,2.29 OD
27,B27,1.68 OD
28,B28,2.1 OD
29,B29,0.99 OD
30,B30,2.07 OD
